Source: article PMC10623010 (Proceedings of the National Academy of Sciences of the …, 2023)

Molecular target: T1, recombinant human lipoprotein lipase (hLPL) (human, UniProt P06858 28-475)
T1 sequence: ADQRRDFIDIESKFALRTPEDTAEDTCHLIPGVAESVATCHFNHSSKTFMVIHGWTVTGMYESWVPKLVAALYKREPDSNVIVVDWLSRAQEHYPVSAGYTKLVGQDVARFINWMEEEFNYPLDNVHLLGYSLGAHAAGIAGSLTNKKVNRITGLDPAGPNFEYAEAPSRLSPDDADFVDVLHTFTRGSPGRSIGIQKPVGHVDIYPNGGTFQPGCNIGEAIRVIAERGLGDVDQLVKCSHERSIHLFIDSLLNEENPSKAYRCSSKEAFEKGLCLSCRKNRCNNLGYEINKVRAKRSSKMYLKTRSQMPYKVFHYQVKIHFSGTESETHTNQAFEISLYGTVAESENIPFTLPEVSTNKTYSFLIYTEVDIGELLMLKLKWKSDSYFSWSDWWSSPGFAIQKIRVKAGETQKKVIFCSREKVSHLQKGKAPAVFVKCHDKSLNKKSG
Experiment: pull-down

B1: recombinant mouse GPIHBP1 (mGPIHBP1) (natural protein)
chain: QEDGDADPEPENYNYDDDDDEEEEEETNMIPGSRDRAPLQCYFCQVLHSGESCNQTQSCSSSKPFCITLVSHSGTDKGYLTTYSMWCTDTCQPIIKTVGGTQMTQTCCQSTLCNIPPWQNPQVQNPLGGRADSPLESGTRHPQGGKFSHPQVVKAAHPQSDGANLPKSGKANQPQG
B1: binds.
